To fix the notation:
B1: parental tilvestamab scFv-osmY fusion protein (scFv, V domains shown)
VH: EVQLVESGGGLVQPGGSLRLSCAASGYSFTDFYINWVRQAPGKGLEWVARIFPGGDNTYYNEKFKGRFTLSADTSKSTAYLQMNSLRAEDTAVYYCARRGLYYAMDYWGQGTLVTVSS
VL: DIQMTQSPSSLSASVGDRVTITCRSSQSLVHSNGIPYLHWYQQKPGKAPKLLIYRVSNRFSGVPSRFSGSGSGTDFTLTISSLQPEDFATYYCSQGTHVPPTFGQGTKVEIK
notes: VH of tilvestamab (BGB149); numbers count on: the scFv-osmY fusion protein; linker between VH and VL, adapted from the vector pOPE101; VL of tilvestamab (BGB149); About 52 kDa; vector pET-22b(+); also called parental scFv-osmY; parental scFv; source: E. coli T7 expression strain, secreted, culture supernatant used directly; not shown: His6, C-terminal, kept
B2: tilvestamab scFv-osmY F33A (scFv, V domains shown)
VH: EVQLVESGGGLVQPGGSLRLSCAASGYSFTDAYINWVRQAPGKGLEWVARIFPGGDNTYYNEKFKGRFTLSADTSKSTAYLQMNSLRAEDTAVYYCARRGLYYAMDYWGQGTLVTVSS
VL: DIQMTQSPSSLSASVGDRVTITCRSSQSLVHSNGIPYLHWYQQKPGKAPKLLIYRVSNRFSGVPSRFSGSGSGTDFTLTISSLQPEDFATYYCSQGTHVPPTFGQGTKVEIK
notes: VH of tilvestamab, as the VH of m1; numbers count on: the scFv-osmY fusion protein; linker; VL of tilvestamab, as the VL of m1; source: E. coli T7 expression strain, secreted, culture supernatant used directly; not shown: His6, C-terminal, kept
B3: tilvestamab scFv-osmY L102S (scFv, V domains shown)
VH: EVQLVESGGGLVQPGGSLRLSCAASGYSFTDFYINWVRQAPGKGLEWVARIFPGGDNTYYNEKFKGRFTLSADTSKSTAYLQMNSLRAEDTAVYYCARRGSYYAMDYWGQGTLVTVSS
VL: DIQMTQSPSSLSASVGDRVTITCRSSQSLVHSNGIPYLHWYQQKPGKAPKLLIYRVSNRFSGVPSRFSGSGSGTDFTLTISSLQPEDFATYYCSQGTHVPPTFGQGTKVEIK
notes: as for B2
B4: tilvestamab scFv-osmY Y103A (scFv, V domains shown)
VH: EVQLVESGGGLVQPGGSLRLSCAASGYSFTDFYINWVRQAPGKGLEWVARIFPGGDNTYYNEKFKGRFTLSADTSKSTAYLQMNSLRAEDTAVYYCARRGLAYAMDYWGQGTLVTVSS
VL: DIQMTQSPSSLSASVGDRVTITCRSSQSLVHSNGIPYLHWYQQKPGKAPKLLIYRVSNRFSGVPSRFSGSGSGTDFTLTISSLQPEDFATYYCSQGTHVPPTFGQGTKVEIK
notes: as for B2
B5: tilvestamab scFv-osmY L102T (scFv, V domains shown)
VH: EVQLVESGGGLVQPGGSLRLSCAASGYSFTDFYINWVRQAPGKGLEWVARIFPGGDNTYYNEKFKGRFTLSADTSKSTAYLQMNSLRAEDTAVYYCARRGTYYAMDYWGQGTLVTVSS
VL: DIQMTQSPSSLSASVGDRVTITCRSSQSLVHSNGIPYLHWYQQKPGKAPKLLIYRVSNRFSGVPSRFSGSGSGTDFTLTISSLQPEDFATYYCSQGTHVPPTFGQGTKVEIK
notes: as for B2
B6: tilvestamab scFv-osmY G233S (scFv, V domains shown)
VH: EVQLVESGGGLVQPGGSLRLSCAASGYSFTDFYINWVRQAPGKGLEWVARIFPGGDNTYYNEKFKGRFTLSADTSKSTAYLQMNSLRAEDTAVYYCARRGLYYAMDYWGQGTLVTVSS
VL: DIQMTQSPSSLSASVGDRVTITCRSSQSLVHSNGIPYLHWYQQKPGKAPKLLIYRVSNRFSGVPSRFSGSGSGTDFTLTISSLQPEDFATYYCSQSTHVPPTFGQGTKVEIK
notes: VH of tilvestamab, as the VH of m1; linker; VL of tilvestamab, as the VL of m1; numbers count on: the scFv-osmY fusion protein; source: E. coli T7 expression strain, secreted, culture supernatant used directly; not shown: His6, C-terminal, kept
B7: tilvestamab scFv-osmY M106A (scFv, V domains shown)
VH: EVQLVESGGGLVQPGGSLRLSCAASGYSFTDFYINWVRQAPGKGLEWVARIFPGGDNTYYNEKFKGRFTLSADTSKSTAYLQMNSLRAEDTAVYYCARRGLYYAADYWGQGTLVTVSS
VL: DIQMTQSPSSLSASVGDRVTITCRSSQSLVHSNGIPYLHWYQQKPGKAPKLLIYRVSNRFSGVPSRFSGSGSGTDFTLTISSLQPEDFATYYCSQGTHVPPTFGQGTKVEIK
notes: as for B2
B8: tilvestamab scFv-osmY N195A (scFv, V domains shown)
VH: EVQLVESGGGLVQPGGSLRLSCAASGYSFTDFYINWVRQAPGKGLEWVARIFPGGDNTYYNEKFKGRFTLSADTSKSTAYLQMNSLRAEDTAVYYCARRGLYYAMDYWGQGTLVTVSS
VL: DIQMTQSPSSLSASVGDRVTITCRSSQSLVHSNGIPYLHWYQQKPGKAPKLLIYRVSARFSGVPSRFSGSGSGTDFTLTISSLQPEDFATYYCSQGTHVPPTFGQGTKVEIK
notes: as for B6
B9: tilvestamab scFv-osmY Y191A (scFv, V domains shown)
VH: EVQLVESGGGLVQPGGSLRLSCAASGYSFTDFYINWVRQAPGKGLEWVARIFPGGDNTYYNEKFKGRFTLSADTSKSTAYLQMNSLRAEDTAVYYCARRGLYYAMDYWGQGTLVTVSS
VL: DIQMTQSPSSLSASVGDRVTITCRSSQSLVHSNGIPYLHWYQQKPGKAPKLLIARVSNRFSGVPSRFSGSGSGTDFTLTISSLQPEDFATYYCSQGTHVPPTFGQGTKVEIK
notes: as for B6
B10: tilvestamab scFv-osmY T31A (scFv, V domains shown)
VH: EVQLVESGGGLVQPGGSLRLSCAASGYSFADFYINWVRQAPGKGLEWVARIFPGGDNTYYNEKFKGRFTLSADTSKSTAYLQMNSLRAEDTAVYYCARRGLYYAMDYWGQGTLVTVSS
VL: DIQMTQSPSSLSASVGDRVTITCRSSQSLVHSNGIPYLHWYQQKPGKAPKLLIYRVSNRFSGVPSRFSGSGSGTDFTLTISSLQPEDFATYYCSQGTHVPPTFGQGTKVEIK
notes: as for B2
B11: tilvestamab scFv-osmY Y108A (scFv, V domains shown)
VH: EVQLVESGGGLVQPGGSLRLSCAASGYSFTDFYINWVRQAPGKGLEWVARIFPGGDNTYYNEKFKGRFTLSADTSKSTAYLQMNSLRAEDTAVYYCARRGLYYAMDAWGQGTLVTVSS
VL: DIQMTQSPSSLSASVGDRVTITCRSSQSLVHSNGIPYLHWYQQKPGKAPKLLIYRVSNRFSGVPSRFSGSGSGTDFTLTISSLQPEDFATYYCSQGTHVPPTFGQGTKVEIK
notes: as for B2
B12: tilvestamab scFv-osmY D32A (scFv, V domains shown)
VH: EVQLVESGGGLVQPGGSLRLSCAASGYSFTAFYINWVRQAPGKGLEWVARIFPGGDNTYYNEKFKGRFTLSADTSKSTAYLQMNSLRAEDTAVYYCARRGLYYAMDYWGQGTLVTVSS
VL: DIQMTQSPSSLSASVGDRVTITCRSSQSLVHSNGIPYLHWYQQKPGKAPKLLIYRVSNRFSGVPSRFSGSGSGTDFTLTISSLQPEDFATYYCSQGTHVPPTFGQGTKVEIK
notes: as for B2
B13: tilvestamab scFv-osmY L102A (scFv, V domains shown)
VH: EVQLVESGGGLVQPGGSLRLSCAASGYSFTDFYINWVRQAPGKGLEWVARIFPGGDNTYYNEKFKGRFTLSADTSKSTAYLQMNSLRAEDTAVYYCARRGAYYAMDYWGQGTLVTVSS
VL: DIQMTQSPSSLSASVGDRVTITCRSSQSLVHSNGIPYLHWYQQKPGKAPKLLIYRVSNRFSGVPSRFSGSGSGTDFTLTISSLQPEDFATYYCSQGTHVPPTFGQGTKVEIK
notes: as for B2
B14: tilvestamab scFv-osmY Y103S (scFv, V domains shown)
VH: EVQLVESGGGLVQPGGSLRLSCAASGYSFTDFYINWVRQAPGKGLEWVARIFPGGDNTYYNEKFKGRFTLSADTSKSTAYLQMNSLRAEDTAVYYCARRGLSYAMDYWGQGTLVTVSS
VL: DIQMTQSPSSLSASVGDRVTITCRSSQSLVHSNGIPYLHWYQQKPGKAPKLLIYRVSNRFSGVPSRFSGSGSGTDFTLTISSLQPEDFATYYCSQGTHVPPTFGQGTKVEIK
notes: as for B2
B15: tilvestamab scFv-osmY L102Y (scFv, V domains shown)
VH: EVQLVESGGGLVQPGGSLRLSCAASGYSFTDFYINWVRQAPGKGLEWVARIFPGGDNTYYNEKFKGRFTLSADTSKSTAYLQMNSLRAEDTAVYYCARRGYYYAMDYWGQGTLVTVSS
VL: DIQMTQSPSSLSASVGDRVTITCRSSQSLVHSNGIPYLHWYQQKPGKAPKLLIYRVSNRFSGVPSRFSGSGSGTDFTLTISSLQPEDFATYYCSQGTHVPPTFGQGTKVEIK
notes: as for B2
B16: tilvestamab scFv-osmY F53A (scFv, V domains shown)
VH: EVQLVESGGGLVQPGGSLRLSCAASGYSFTDFYINWVRQAPGKGLEWVARIAPGGDNTYYNEKFKGRFTLSADTSKSTAYLQMNSLRAEDTAVYYCARRGLYYAMDYWGQGTLVTVSS
VL: DIQMTQSPSSLSASVGDRVTITCRSSQSLVHSNGIPYLHWYQQKPGKAPKLLIYRVSNRFSGVPSRFSGSGSGTDFTLTISSLQPEDFATYYCSQGTHVPPTFGQGTKVEIK
notes: as for B2
B17: tilvestamab scFv-osmY F33Y (scFv, V domains shown)
VH: EVQLVESGGGLVQPGGSLRLSCAASGYSFTDYYINWVRQAPGKGLEWVARIFPGGDNTYYNEKFKGRFTLSADTSKSTAYLQMNSLRAEDTAVYYCARRGLYYAMDYWGQGTLVTVSS
VL: DIQMTQSPSSLSASVGDRVTITCRSSQSLVHSNGIPYLHWYQQKPGKAPKLLIYRVSNRFSGVPSRFSGSGSGTDFTLTISSLQPEDFATYYCSQGTHVPPTFGQGTKVEIK
notes: as for B2
B18: tilvestamab scFv-osmY G233A (scFv, V domains shown)
VH: EVQLVESGGGLVQPGGSLRLSCAASGYSFTDFYINWVRQAPGKGLEWVARIFPGGDNTYYNEKFKGRFTLSADTSKSTAYLQMNSLRAEDTAVYYCARRGLYYAMDYWGQGTLVTVSS
VL: DIQMTQSPSSLSASVGDRVTITCRSSQSLVHSNGIPYLHWYQQKPGKAPKLLIYRVSNRFSGVPSRFSGSGSGTDFTLTISSLQPEDFATYYCSQATHVPPTFGQGTKVEIK
notes: as for B6
B19: tilvestamab scFv-osmY I35A (scFv, V domains shown)
VH: EVQLVESGGGLVQPGGSLRLSCAASGYSFTDFYANWVRQAPGKGLEWVARIFPGGDNTYYNEKFKGRFTLSADTSKSTAYLQMNSLRAEDTAVYYCARRGLYYAMDYWGQGTLVTVSS
VL: DIQMTQSPSSLSASVGDRVTITCRSSQSLVHSNGIPYLHWYQQKPGKAPKLLIYRVSNRFSGVPSRFSGSGSGTDFTLTISSLQPEDFATYYCSQGTHVPPTFGQGTKVEIK
notes: as for B2
B20: tilvestamab scFv-osmY G101A (scFv, V domains shown)
VH: EVQLVESGGGLVQPGGSLRLSCAASGYSFTDFYINWVRQAPGKGLEWVARIFPGGDNTYYNEKFKGRFTLSADTSKSTAYLQMNSLRAEDTAVYYCARRALYYAMDYWGQGTLVTVSS
VL: DIQMTQSPSSLSASVGDRVTITCRSSQSLVHSNGIPYLHWYQQKPGKAPKLLIYRVSNRFSGVPSRFSGSGSGTDFTLTISSLQPEDFATYYCSQGTHVPPTFGQGTKVEIK
notes: as for B2

The experiment has as its target T1, AXL Ig1 domain fused to human Fc (Homo sapiens, UniProt P30530).
T1 construct: AXL receptor tyrosine kinase, human, Ig1 domain of the extracellular domain; Construct limits and production are in the Supplementary Information; also called AXL Ig1-Fc; AXL-Ig1-Fc
Put plainly: BLI; Octet RED96; His-tagged scFv-osmY captured on Ni-NTA tips from undiluted bacterial supernatant (600 s); AXL Ig1 domain Fc 5.6 ug/ml in kinetic buffer (0.02% Tween 20, 0.05% sodium azide, 0.1% BSA in PBS) as analyte; rat Axl-Fc as control; traces scored by eye (normal, fast, very fast, weak, weak fast, none). The conditions noted are these: one partner purified.
Take B1: the binding result is reported as “binds”. The result for B2 reads “binds”; that for B3, “binds”. Then B4, with “binds”; and B5, with “binds”; and B6, with “binds”. Then B7, with “binds”; and B8, with “binds”; and B9, with “binds”. Regarding B10, the binding result is on record as “binds”.

Turning to B11, the binding result is “binds”.

Take B12: the binding result is listed as “binds”. Regarding B13, the binding result was “binds”. The result for B14 reads “binds”. The result for B15 reads “binds”; that for B16, “binds”; that for B17, “binds”. In the case of B18, the binding result is “binds”.

B19: the binding result is given as “binds”. The result for B20 reads “binds”.

These data come from PMC12784346, “Paratope mapping of tilvestamab, an anti-AXL function-blocking antibody, using high-throughput bacterial expression of secreted scFv-osmY fusion proteins” (Bioscience Reports, 2025).
